Blank lines part the entries; values can stand above or below the substance they belong to.
Tests used:
[1] = biological target: Toc75 POTRA-His (protein fragment encompassing all three Toc75 POTRA domains and a C-terminal hexahistidine tag) (Arabidopsis thaliana) (UniProt Q9STE8); assay: pull-down; solid phase binding: increasing amounts of POTRA-His immobilised on Ni-NTA resin, incubated with in vitro translated 35S-labelled proteins in HMK buffer (50 mM Hepes-KOH pH 7.5, 2 mM MgCl2, 40 mM KOAc) with 10 mM imidazole and 0.1% Triton X-100, 30 min, 23°C; phosphorimaging
[2] = biological target: TOC translocons in TOC75ΔP1-2#2 chloroplasts (Arabidopsis thaliana | Arabidopsis thaliana (endogenous in chloroplasts)) (UniProt Q9STE8); assay: other; apparent Kd, isolated chloroplasts, 0.1 mM ATP and GTP; details: natural protein
[3] = biological target: TOC translocons in TOC75 chloroplasts (Arabidopsis thaliana | Arabidopsis thaliana (endogenous in chloroplasts)) (UniProt Q9STE8); assay: saturation binding to isolated chloroplasts; apparent; increasing amounts of urea-denatured preSSU-FLAG-HIS with 10^7 isolated chloroplasts, 0.1 mM ATP and GTP, 26°C, 5 min (early import intermediate); chloroplasts reisolated through Percoll, anti-FLAG immunoblot, non-linear regression
[4] = biological target: TOC translocons in TOC75ΔP1#2 chloroplasts (Arabidopsis thaliana | Arabidopsis thaliana (endogenous in chloroplasts)) (UniProt Q9STE8); assay: as above

- maximum binding, percent of added radiolabeled protein [1]: 77%
Substance: [35S]preSSU (from UniProt P10795 1-180) (natural protein)

- Kd [2]: 126 nM
Substance: preSSU-FLAG-HIS (from UniProt P10795 55-180)

- Kd [3]: 159 nM
- Kd [4]: 188 nM
Substance: preSSU-FLAG-HIS (from UniProt P10795 55-180) (natural protein)
